Experimental data published in patent US6623738 (University of California, dated 2003).

B1: Sema E-AP fusion protein (mouse Sema E fused to alkaline phosphatase) (ligand, UniProt Q62181 21-751, looked up)
chain: GSSQPQARVYLTFDELRETKTSEYFSLSHQQLDYRILLMDEDQDRIYVGSKDHILSLNINNISQEPLSVFWPASTIKVEECKMAGKDPTHGCGNFVRVIQTFNRTHLYVCGSGAFSPVCTYLNRGRRSEDQVFMIDSKCESGKGRCSFNPNVNTVSVMINEELFSGMYIDFMGTDAAIFRSLTKRNAVRTDQHNSKWLSEPMFVDAHVIPDGTDPNDAKVYFFFKERLTDNNRSTKQIHSMIARICPNDTGGQRSLVNKWTTFLKARLVCSVTDEDGPETHFDELEDVFLLETDNPRTTLVYGIFTTSSSVFKGSAVCVYHLSDIQTVFNGPFAHKEGPNHQLISYQGRIPYPRPGTCPGGAFTPNMRTTKDFPDDVVTFIRNHPLMYNSIYPIHRRPLIVRIGTDYKYTKIAVDRVNAADGRYHVLFLGTDRGTVQKVVVLPTNSSASGELILEELEVFKNHVPITTMKISSKKQQLYVSSNEGVSQVSLHRCHIYGTACADCCLARDPYCAWDGHSCSRFYPTGKRRSRRQDVRHGNPLTQCRGFNLKAYRNAAEIVQYGVRNNSTFLECAPKSPQASIKWLLQKDKDRRKEVKLNERIIATSQGLLIRSVQDSDQGLYHCIATENSFKQTIAKINFKVLDSEMVAVVTDKWSPWTWAGSVRALPFHPKDILGAFSHSEMQLINQYCKDTRQQQQLGEEPQKMRGDYGKLKALINSRKSRNRRNQLPES
notes: written as in the name; Partially purified conditioned medium; not shown: secreted alkaline phosphatase of vector APtag-4
B2: Sema IV-AP fusion protein (human Sema IV fused to alkaline phosphatase) (ligand, UniProt Q13275 19-785, looked up)
chain: SFPTQDHLPATPRVRLSFKELKATGTAHFFNFLLNTTDYRILLKDEDHDRMYVGSKDYVLSLDLHDINREPLIIHWAASPQRIEECVLSGKDVNGECGNFVRLIQPWNRTHLYVCGTGAYNPMCTYVNRGRRAQATPWTQTQAVRGRGSRATDGALRPMPTAPRQDYIFYLEPERLESGKGKCPYDPKLDTASALINEELYAGVYIDFMGTDAAIFRTLGKQTAMRTDQYNSRWLNDPSFIHAELIPDSAERNDDKLYFFFRERSAEAPQSPAVYARIGRICLNDDGGHCCLVNKWSTFLKARLVCSVPGEDGIETHFDELQDVFVQQTQDVRNPVIYAVFTSSGSVFRGSAVCVYSMADIRMVFNGPFAHKEGPNYQWMPFSGKMPYPRPGTCPGGTFTPSMKSTKDYPDEVINFMRSHPLMYQAVYPLQRRPLVVRTGAPYRLTTIAVDQVDAADGRYEVLFLGTDRGTVQKVIVLPKDDQELEELMLEEVEVFKDPAPVKTMTISSKRQQLYVASAVGVTHLSLHRCQAYGAACADCCLARDPYCAWDGQACSRYTASSKRRSRRQDVRHGNPIRQCRGFNSNANKNAVESVQYGVAGSAAFLECQPRSPQATVKWLFQRDPGDRRREIRAEDRFLRTEQGLLLRALQLSDRGLYSCTATENNFKHVVTRVQLHVLGRDAVHAALFPPLSMSAPPPPGAGPPTPPYQELAQLLAQPEVGLIHQYCQGYWRHVPPSPREAPGAPRSPEPQDQKKPRNRRHHPPDT
notes: written as in the name; Partially purified conditioned medium; also called Sema IV/Sema 3F; not shown: secreted alkaline phosphatase in pSecTag-A
B3: AP fusion with Drosophila D-Sema II (ligand, UniProt Q24323 26-724, looked up)
chain: DYENTWNFYYERPCCTGNDQGNNNYGKHGADHVREFNCGKLYYRTFHMNEDRDTLYVGAMDRVFRVNLQNISSSNCNRDVINLEPTRDDVVSCVSKGKSQIFDCKNHVRVIQSMDQGDRLYVCGTNAHNPKDYVIYANLTHLPRSEYVIGVGLGIAKCPYDPLDNSTAIYVENGNPGGLPGLYSGTNAEFTKADTVIFRTDLYNTSAKRLEYKFKRTLKYDSKWLDKPNFVGSFDIGEYVYFFFRETAVEYINCGKAVYSRIARVCKKDVGGKNLLAHNWATYLKARLNCSISGEFPFYFNEIQSVYQLPSDKSRFFATFTTSTNGLIGSAVCSFHINEIQAAFNGKFKEQSSSNSAWLPVLNSRVPEPRPGTCVNDTSNLPDTVLNFIRSHPLMDKAVNHEHNNPVYYKRDLVFTKLVVDKIRIDILNQEYIVYYVGTNLGRIYKIVQYYRNGESLSKLLDIFEVAPNEAIQVMEISQTRKSLYIGTDHRIKQIDLAMCNRRYDNCFRCVRDPYCGWDKEANTCRPYELDLLQDVANETSDICDSSVLKKKIVVTYGQSVHLGCFVKIPEVLKNEQVTWYHHSKDKGRYEIRYSPTKYIETTERGLVVVSVNEADGGRYDCHLGGSLLCSYNITVDAHRCTPPNKSNDYQKIYSDWCHEFEKYKTAMKSWEKKQAQCSTRQNFSSNQHPNEIFRKPNV
notes: also called Drosophila Sema II; not shown: alkaline phosphatase (AP) reporter

Columns and labels:
[1] = target: T1, mouse neuropilin-2(a5), myc-tagged, expressed in COS-7 cells (mouse, UniProt O35375 21-931); test: equilibrium binding of AP fusion to transfected COS cells (a5 isoform), Hill fit
T1 construct: also called a5 isoform of neuropilin-2; SR2(a)5
T1 sequence: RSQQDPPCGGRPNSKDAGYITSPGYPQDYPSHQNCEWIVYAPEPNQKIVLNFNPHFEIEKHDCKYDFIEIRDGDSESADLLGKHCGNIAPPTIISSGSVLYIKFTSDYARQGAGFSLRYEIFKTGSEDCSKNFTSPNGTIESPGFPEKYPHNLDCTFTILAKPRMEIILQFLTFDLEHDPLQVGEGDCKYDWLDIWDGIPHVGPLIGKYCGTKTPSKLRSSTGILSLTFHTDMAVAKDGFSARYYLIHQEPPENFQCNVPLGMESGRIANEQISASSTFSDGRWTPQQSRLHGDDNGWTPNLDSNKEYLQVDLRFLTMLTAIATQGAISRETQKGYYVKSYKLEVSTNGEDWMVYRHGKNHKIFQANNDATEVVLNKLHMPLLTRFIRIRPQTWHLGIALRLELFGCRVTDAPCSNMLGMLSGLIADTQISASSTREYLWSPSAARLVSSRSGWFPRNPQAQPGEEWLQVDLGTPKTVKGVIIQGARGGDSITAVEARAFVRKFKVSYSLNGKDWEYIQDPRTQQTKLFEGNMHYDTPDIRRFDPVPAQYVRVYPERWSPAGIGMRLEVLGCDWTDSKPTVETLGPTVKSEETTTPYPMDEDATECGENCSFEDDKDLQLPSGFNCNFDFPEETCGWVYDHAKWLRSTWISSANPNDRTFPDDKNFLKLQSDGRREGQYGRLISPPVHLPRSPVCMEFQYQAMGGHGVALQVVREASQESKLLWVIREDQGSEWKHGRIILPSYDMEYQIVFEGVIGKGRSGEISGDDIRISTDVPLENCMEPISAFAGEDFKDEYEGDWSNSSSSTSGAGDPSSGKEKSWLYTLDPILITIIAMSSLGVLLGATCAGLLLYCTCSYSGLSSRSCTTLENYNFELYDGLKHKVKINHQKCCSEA
Protocol: (§1) FIGS. 5A–5C. Equilibrium binding of semaphorin-AP fusion proteins to neuropilin-expressing cells. Transfected or control COS cells were incubated with concentrated media containing the indicated concentrations of semaphorin-AP fusion proteins. AP activity derived from bound fusion proteins was measured […] at 405 nm; specific binding was obtained after subtraction of background from control cells. Specific binding curves to cells expressing neuropilin-1 (closed circles) or […] are shown for Sema III-AP (A), Sema E-AP (B), and Sema IV-AP (C). Dissociation constants for interaction with neuropilin-2-expressing cells were 0.29 for Sema E-AP and 0.09 nM for Sema IV-AP.
(§2) We estimated the binding affinity of the AP fusions of Sema III, Sema E and Sema IV to cells expressing neuropilin-1 or neuropilin-2 in equilibrium binding experiments. For these experiments, we used the a5 isoform of neuropilin-2. […] Those for Sema IV binding to neuropilin-1 and neuropilin-2 were 30 nM and 5 nM, respectively. […] Similar Kd values were obtained using the b5 isoform of neuropilin-2 and the degree of binding of different semaphorins to cells all isoforms tested appeared similar.

[2] = target: T2, neuropilin-1 transiently expressed in COS-7 cells (Rattus norvegicus (Rat), UniProt Q9QWJ9 22-922); test: equilibrium binding of AP fusion to transfected COS cells, Hill fit
T2 construct: also called npn-1; SR1
Protocol: as §1, §2

[3] = target: T1, mouse neuropilin-2(a5), myc-tagged, …; test: equilibrium binding of AP fusion to neuropilin-2-expressing COS cells (figure legend)
Protocol: as §1, §2

[4] = target: T1, mouse neuropilin-2(a5), myc-tagged, …; test: AP fusion binding to transfected COS cells
[5] = target: T3, mouse neuropilin-2(a0), myc-tagged, expressed in COS-7 cells (mouse, UniProt O35375 21-931); test: AP fusion binding to transfected COS cells
T3 construct: also called SR2(a)0; m-npn-2
T3 sequence: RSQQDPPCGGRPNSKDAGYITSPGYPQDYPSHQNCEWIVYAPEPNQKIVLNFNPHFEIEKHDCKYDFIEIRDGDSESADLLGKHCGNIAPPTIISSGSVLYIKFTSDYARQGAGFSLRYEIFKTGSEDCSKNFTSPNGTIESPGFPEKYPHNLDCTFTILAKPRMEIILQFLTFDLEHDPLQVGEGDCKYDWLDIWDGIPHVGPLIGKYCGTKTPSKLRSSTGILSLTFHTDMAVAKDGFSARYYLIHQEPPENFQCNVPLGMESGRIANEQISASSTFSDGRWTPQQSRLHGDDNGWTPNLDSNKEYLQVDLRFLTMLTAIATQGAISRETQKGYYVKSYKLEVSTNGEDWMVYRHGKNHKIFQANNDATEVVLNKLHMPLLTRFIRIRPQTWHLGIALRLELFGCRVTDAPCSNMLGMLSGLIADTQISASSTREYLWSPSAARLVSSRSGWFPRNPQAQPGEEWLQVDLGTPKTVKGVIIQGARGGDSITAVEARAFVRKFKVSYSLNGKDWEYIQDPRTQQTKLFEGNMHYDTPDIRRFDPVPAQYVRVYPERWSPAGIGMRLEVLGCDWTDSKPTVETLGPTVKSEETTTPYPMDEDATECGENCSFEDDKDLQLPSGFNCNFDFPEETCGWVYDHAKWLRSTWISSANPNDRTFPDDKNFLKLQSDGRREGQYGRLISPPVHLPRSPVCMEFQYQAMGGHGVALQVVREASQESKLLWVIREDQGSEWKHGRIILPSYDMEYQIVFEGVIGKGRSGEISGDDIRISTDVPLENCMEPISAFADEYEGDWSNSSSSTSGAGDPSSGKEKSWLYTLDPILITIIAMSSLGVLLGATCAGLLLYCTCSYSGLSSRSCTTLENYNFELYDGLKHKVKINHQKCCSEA

[6] = target: T4, mouse neuropilin-2(a22), myc-tagged, expressed in COS-7 cells (mouse, UniProt O35375 21-931); test: AP fusion binding to transfected COS cells
T4 construct: also called SR2(a)22
T4 sequence: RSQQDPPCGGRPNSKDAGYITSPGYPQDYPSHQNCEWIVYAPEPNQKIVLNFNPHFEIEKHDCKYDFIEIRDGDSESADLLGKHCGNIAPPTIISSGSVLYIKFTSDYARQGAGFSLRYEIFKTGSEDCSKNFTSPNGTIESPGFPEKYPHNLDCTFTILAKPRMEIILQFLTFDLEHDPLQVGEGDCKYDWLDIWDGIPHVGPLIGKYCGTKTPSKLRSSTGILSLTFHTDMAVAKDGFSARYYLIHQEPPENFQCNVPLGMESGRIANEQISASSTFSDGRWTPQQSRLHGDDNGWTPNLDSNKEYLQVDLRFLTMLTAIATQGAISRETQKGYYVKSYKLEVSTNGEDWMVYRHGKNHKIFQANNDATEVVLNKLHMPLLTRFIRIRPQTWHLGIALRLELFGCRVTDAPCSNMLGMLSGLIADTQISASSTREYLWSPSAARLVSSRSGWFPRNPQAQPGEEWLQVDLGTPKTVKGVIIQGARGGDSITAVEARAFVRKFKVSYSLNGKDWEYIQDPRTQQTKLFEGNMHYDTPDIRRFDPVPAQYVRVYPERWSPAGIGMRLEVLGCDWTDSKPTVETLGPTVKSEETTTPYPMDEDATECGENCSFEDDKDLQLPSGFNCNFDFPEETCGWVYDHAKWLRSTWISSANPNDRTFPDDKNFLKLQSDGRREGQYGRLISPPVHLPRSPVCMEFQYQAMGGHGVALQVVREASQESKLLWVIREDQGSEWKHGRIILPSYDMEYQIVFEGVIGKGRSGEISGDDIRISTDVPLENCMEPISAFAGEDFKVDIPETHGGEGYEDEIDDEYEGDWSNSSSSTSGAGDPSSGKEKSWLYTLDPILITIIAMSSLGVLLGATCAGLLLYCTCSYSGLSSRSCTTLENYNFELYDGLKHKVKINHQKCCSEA

| Binder | Kd [1] [nM] | Kd [2] [nM] | Kd [3] [nM] | binding result [4] | binding result [5] | binding result [6] |
| --- | --- | --- | --- | --- | --- | --- |
| B1 | 18 | 5 | 0.29 | – | – | – |
| B2 | 5 | 30 | 0.09 | – | – | – |
| B3 | – | – | – | no binding | no binding | no binding |
